Legend:
[1] = biological target: T1, cell membrane-bound human 4-1BB (endogenous, on ionomycin/PMA stimulated CCRF-CEM cells or primary CD8+ T … (human, UniProt Q07011 24-255)); assay: flow cytometry on PMA/ionomycin stimulated CEM cells, anti-penta-His Alexa Fluor-488 detection
T1 construct: also called cell membrane-expressed human 4-1 BB; 4-1BB on CEM cells
Experimental: Assay setup: Ankyrin repeat protein binding to cell membrane-bound human 4-1 BB on cells was measured by flow cytometry using the T lymphoblast cell line CCRF-CEM (ATCC® CCL-119™) stimulated with ionomcycin/PMA (phorbol 12-myristate 13-acetate) to express 4-1 BB. CEM cells cultured in RPMI medium supplemented with 10% (v/v) FBS+1% PenStrep were harvested and stimulated overnight in 96-well U-bottom plates using the same medium plus PMA (10 ng/ml) and ionomycin (500 ng/ml). […] Stimulated CEM cells were harvested, then 30,000 cells were incubated with increasing concentrations of His-tagged ankyrin repeat proteins in FACS buffer (PBS+2% (v/v) FBS+0.1% sodium azide) for 30 minutes on ice. […] After washing with PBS, cells were stained with Live/Dead Aqua dye (Thermo Fisher, No. L34957) and analyzed using a BD FACS Canto II or AttuneNxT cytometer.
The multivalent ankyrin repeat proteins were tested, together with binding proteins comprising only one corresponding 4-1 BB-specific ankyrin repeat domain (with our without a linked localizer), for binding to PMA/ionomycin stimulated CEM cells.

[2] = biological target: T2, biotinylated human 4-1BB (recombinant Fc fusion protein of the extracellular domain of human 4-1BB) (human, UniProt Q07011 24-186, biotinylated (site not stated)); assay: SPR; accurate fit not possible due to slow off-rate
T2 construct: Bought from BPS Bioscience; tie to the Fc fusion is by the Materials paragraph; also called h4-1BB; CD137; not shown: Fc part of the purchased fusion (BPS Bioscience)

T1 sequence (Q07011 24-255 limits assumed): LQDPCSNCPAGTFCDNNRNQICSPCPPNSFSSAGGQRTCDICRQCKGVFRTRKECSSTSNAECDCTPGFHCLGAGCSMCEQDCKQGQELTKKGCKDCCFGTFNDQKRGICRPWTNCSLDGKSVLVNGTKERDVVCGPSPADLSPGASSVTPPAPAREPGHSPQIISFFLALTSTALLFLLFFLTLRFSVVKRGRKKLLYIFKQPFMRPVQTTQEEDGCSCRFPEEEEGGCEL

Binder | EC50 (read off the curve) [1] | Kd [2]
DARPin® protein #55 (designed binder, not shown: TAA-specific ankyrin repeat domain (localizer)) GSDLGDKLLHAAYYGQDDEVRILLAAGADVNAKDTQGLTPLHLAAAIGHLEIVEVLLKAGADVNAKDAYGETPLHLVASRGHLEIVEVLLKAGADVNAQDYSGRTPADLAAEYGHEDIAEVLQKLNGSPTPTPTTPTPTPTTPTPTPTGSDLGDKLLHAAYYGQDDEVRILLAAGADVNAKDTQGLTPLHLAAAIGHLEIVEVLLKAGADVNAKDAYGETPLHLVASRGHLEIVEVLLKAGADVNAQDYSGRTPADLAAEYGHEDIAEVLQKLNGSPTPTPTTPTPTPTTPTPTPTGSDLGDKLLHAAYYGQDDEVRILLAAGADVNAKDTQGLTPLHLAAAIGHLEIVEVLLKAGADVNAKDAYGETPLHLVASRGHLEIVEVLLKAGADVNAQDYSGRTPADLAAEYGHEDIAEVLQKLN | ~7 nM | –
DARPin® protein #51 (designed binder, not shown: TAA-specific ankyrin repeat domain (localizer)) GSDLGQKLLKAAQEGQDDEVRELLKAGADVNAKDLRGITPLHVAAWQGHLEIVEVLLKAGADVNAKDSKGETPLHLAAFRGHLEIVEVLLKAGADVNAQDQQGETPADLAALAGHVDIAEVLQKLNGSPTPTPTTPTPTPTTPTPTPTGSDLGQKLLKAAQEGQDDEVRELLKAGADVNAKDLRGITPLHVAAWQGHLEIVEVLLKAGADVNAKDSKGETPLHLAAFRGHLEIVEVLLKAGADVNAQDQQGETPADLAALAGHVDIAEVLQKLN | – | < 0.02 nM
DARPin® protein #52 (designed binder, not shown: TAA-specific ankyrin repeat domain (localizer)) GSDLGDKLLHAAYYGQDDEVRILLAAGADVNAKDTQGLTPLHLAAAIGHLEIVEVLLKAGADVNAKDAYGETPLHLVASRGHLEIVEVLLKAGADVNAQDYSGRTPADLAAEYGHEDIAEVLQKLNGSPTPTPTTPTPTPTTPTPTPTGSDLGDKLLHAAYYGQDDEVRILLAAGADVNAKDTQGLTPLHLAAAIGHLEIVEVLLKAGADVNAKDAYGETPLHLVASRGHLEIVEVLLKAGADVNAQDYSGRTPADLAAEYGHEDIAEVLQKLN | ~8 nM | –

From US20220298212A1 (Molecular Partners, published 2022)
